The target in one assay is T1, hTLT-1 ECD-His (human, UniProt Q86YW5 16-162).
T1 construct: Extracellular domain of human TLT-1 with C-terminal His-6 tag; the range 16-168 is computed from these; also called TLT-1-His; His tagged human TLT1
T1 sequence: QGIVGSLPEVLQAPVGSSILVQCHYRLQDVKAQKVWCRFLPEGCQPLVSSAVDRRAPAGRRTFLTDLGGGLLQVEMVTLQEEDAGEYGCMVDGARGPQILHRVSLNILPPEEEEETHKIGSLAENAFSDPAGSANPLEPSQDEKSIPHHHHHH
Kind of assay: SPR Biacore, mAb immobilised directly, TLT-1 as analyte. As to the method:
Method: The mAbs of interest were either immobilized directly to a CM5 chip or by capture via a human Fc capture mAb immobilized to a CM5 chip, while TLT-1-His was immobilized by capture via an anti-His mAb CM5 chip for analysis of Fabs.
mAb direct capture: The TLT-1 mAbs were immobilised to a level of approx 500-1000 RU on a CM5 chip (50 μg/ml diluted in Na-acetate, pH 4.0) using the standard procedure recommended by the supplier. Two-fold dilutions of TLT-1 from 200 nM to 0.2 nM were tested for binding to the mAbs. Running and dilution buffer: 10 mM HEPES, 150 mM, 0.005% p20, pH 7.4. Regeneration was obtained by 10 mM Glycine, pH 1.7. mAb capture via human Fc mAb: Human Fc mAb was immobilised to approx 10.000 RU. The mAb of interest was added (approx 100 nM). Two-fold dilutions of TLT-1 from 200 nM to 0.2 nM were tested. Running and dilution buffer: 10 mM HEPES, 150 mM, 0.005% p20, pH 7.4. Regeneration was obtained in 3 M MgCl₂.

For a further assay, the target named is T2, hTLT-1 ECD-HPC4 K46A (human, UniProt Q86YW5 16-162).
T2 construct: Built as m17; also called Ala mutant 10
T2 chain: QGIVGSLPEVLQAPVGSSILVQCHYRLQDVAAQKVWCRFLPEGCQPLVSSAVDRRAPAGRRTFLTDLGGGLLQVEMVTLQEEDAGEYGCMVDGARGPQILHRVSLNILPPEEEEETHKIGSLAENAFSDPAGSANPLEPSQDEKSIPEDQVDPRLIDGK
Kind of assay: SPR ProteOn, mAb captured by anti-hFc, 100 nM mutant, signal 10 s after injection. The protocol:
(§1) Each antibody was diluted in 10 mM sodium acetate pH 5.0 to a concentration of 50 μg/ml, and was immobilized to an individual flow cell at 30 μl/min for 240 s. The antibodies were immobilized to flow cells A1-A6 (horizontal direction). After immobilization, the active sites on the flow cell were blocked with 1 M ethanolamine. The final immobilization level of capture antibody typically ranged from approximately 9,000 to 10,000 RU in one experiment. Capture of the anti-TLT-1 antibodies mAb0023, mAb0051, mAb0061 and mAb0062 was conducted by diluting to 0.5 μg/ml into HBS-EP buffer (10 mM HEPES, 150 mM NaCl, 3 mM EDTA, 0.05% surfactant P20, pH 7.4) and injected at 30 μl/min for 60 s in vertical direction, creating interspot reference points with only anti-human Fc antibodies.
(§2) The final capture level of test antibodies typically ranged from approximately 200 to 300 RU in one experiment. Binding of wt or Ala mutant hTLT-1 ECD-HPC4 protein was conducted by injecting over parallel flow cells in horizontal direction to allow for comparative analyses of binding to different captured anti-TLT-1 antibodies relative to binding to the interspot references. Each hTLT-1 ECD-HPC4 protein was diluted to 100 nM, based on the calculated average Mw, into HBS-EP buffer and injected at 30 μl/min for 240 s. The GLM chip was regenerated after each injection cycle of analyte via one 18 s injection of 1 M Formic acid followed by a 18s injection of 50 mM NaOH at 100 μl/min. This regeneration step removed the anti-TLT-1 antibody and any bound TLT-1 from the immobilized capture antibody surface, and allowed for the subsequent binding of the next test sample pair.
(§3) Data analysis was performed using the ProteOn Manager™ Software. No significant non-specific binding to the interspot control surfaces was observed. Binding curves were processed by double referencing (subtraction of interspot control surface signals as well as blank buffer injections over captured anti-TLT-1 antibodies). This allowed correction for instrument noise, bulk shift and drift during sample injections. Binding signal at 10 s after stop of analyte injection was normalized to level of captured anti-TLT-1 antibody and presented as binding relative to wt hTLT-1 ECD-HPC4 protein.

For the next assay, the target named is T3, hTLT-1 ECD-HPC4 R110A (human, UniProt Q86YW5 16-162).
T3 construct: Built as m17; also called Ala mutant 30
T3 chain: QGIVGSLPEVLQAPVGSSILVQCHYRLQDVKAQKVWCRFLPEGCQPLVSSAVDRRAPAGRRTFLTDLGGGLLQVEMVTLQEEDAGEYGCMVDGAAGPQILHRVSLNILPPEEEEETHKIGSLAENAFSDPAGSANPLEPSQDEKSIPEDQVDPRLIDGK
Described as above. As to the method: as §1, §2, §3

In the next assay the target is T4, hTLT-1 ECD-HPC4 L42A (human, UniProt Q86YW5 16-162).
T4 construct: Built as m17; also called Ala mutant 8
T4 chain: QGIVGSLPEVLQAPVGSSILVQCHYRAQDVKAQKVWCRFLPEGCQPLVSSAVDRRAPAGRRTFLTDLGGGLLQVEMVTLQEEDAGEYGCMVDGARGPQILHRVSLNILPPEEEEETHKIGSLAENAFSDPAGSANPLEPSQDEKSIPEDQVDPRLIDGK
The description is as above. As to the method: as §1, §2, §3

For another assay, the target named is T5, hTLT-1 ECD-HPC4 Q43A (human, UniProt Q86YW5 16-162).
T5 construct: Built as m17; also called Ala mutant 9
T5 chain: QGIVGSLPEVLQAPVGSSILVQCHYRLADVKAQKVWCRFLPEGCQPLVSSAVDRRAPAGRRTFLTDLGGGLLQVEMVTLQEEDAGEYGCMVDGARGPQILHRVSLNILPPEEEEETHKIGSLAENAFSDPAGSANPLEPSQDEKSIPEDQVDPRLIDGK
The assay is described as above. As to the method: as §1, §2, §3

Another assay deals with T6, hTLT-1 ECD-HPC4 M91A (human, UniProt Q86YW5 16-162).
T6 construct: Built as m17; also called Ala mutant 24
T6 chain: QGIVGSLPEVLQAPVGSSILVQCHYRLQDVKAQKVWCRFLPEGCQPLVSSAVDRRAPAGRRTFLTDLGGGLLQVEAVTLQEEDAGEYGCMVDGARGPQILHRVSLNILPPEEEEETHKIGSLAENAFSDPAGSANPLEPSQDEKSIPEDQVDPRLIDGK
Described as above. The protocol: as §1, §2, §3

The next assay has as its target T7, hTLT-1.126-162 (human).
T7 construct: Made by solid phase peptide synthesis; not glycosylated; also called TLT-1 stalk peptide; chain P
T7 peptide: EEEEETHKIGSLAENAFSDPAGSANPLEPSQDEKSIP
Kind of assay: crystal structure of the Fab0100:hTLT-1.126-162 complex; complex isolated by gel filtration. As to the method: The complex was subjected to gel filtration using a Superdex 200 HighLoad 26/60 (GE Healthcare) column eluted with PBS-buffer (pH 7.4) at a flow rate of 1 ml/min. Fractions corresponding to a volume of 3 ml were collected.
The crystal was allowed to soak for about 15 seconds, then flash frozen in liquid N₂ and during data collection kept at 100 K by a cryogenic N₂ gas stream. Crystallographic data were subsequently collected to 1.85 Å resolution at beam-line BL911-3 (Ursby, T. et al. (2004) AIP Conference Proceedings 705, 1241-1246) at MAX-lab, Lund, Sweden. Space group determination, integration and scaling of the data were made in the XDS software package. Cell parameters for the synchrotron data were determined to be 82.54, 65.32, 108.05 Å, 90°, 95.15° and 90°, for a, b, c, α, β and γ, respectively, and space group was determined to be C2. Rsym for intensities of the data set was calculated to be 6.7%.

Another assay has as its target T8, hTLT-1 ECD-HPC4 F54A (human, UniProt Q86YW5 16-162).
T8 construct: Built as m17; also called Ala mutant 12
T8 chain: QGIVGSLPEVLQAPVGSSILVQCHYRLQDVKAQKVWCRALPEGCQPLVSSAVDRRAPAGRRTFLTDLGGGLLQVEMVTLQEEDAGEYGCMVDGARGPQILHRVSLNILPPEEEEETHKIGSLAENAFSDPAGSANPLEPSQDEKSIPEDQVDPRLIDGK
As to the kind of experiment: SPR ProteOn, mAb captured by anti-hFc, 100 nM mutant, signal 10 s after injection. The protocol:
as §1, §2, §3

Another assay deals with T9, hTLT-1 ECD-HPC4 H116A (human, UniProt Q86YW5 16-162).
T9 construct: Built as m17; also called Ala mutant 31
T9 chain: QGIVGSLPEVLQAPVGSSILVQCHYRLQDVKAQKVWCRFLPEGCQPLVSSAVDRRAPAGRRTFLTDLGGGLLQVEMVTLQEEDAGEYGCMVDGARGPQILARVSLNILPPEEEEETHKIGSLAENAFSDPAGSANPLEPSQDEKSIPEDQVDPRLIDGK
The description is as above. The protocol: as §1, §2, §3

Another assay addresses T10, hTLT-1 ECD-HPC4 R41A (human, UniProt Q86YW5 16-162).
T10 construct: Built as m17; also called Ala mutant 7
T10 chain: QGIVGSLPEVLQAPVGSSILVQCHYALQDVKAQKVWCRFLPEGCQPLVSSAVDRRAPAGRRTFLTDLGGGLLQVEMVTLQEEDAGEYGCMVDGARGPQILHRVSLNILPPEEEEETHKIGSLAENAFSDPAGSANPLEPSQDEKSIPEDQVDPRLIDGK
Described as above. The protocol:
as §1, §2, §3

B1: mAb0023 (antibody, V domains shown)
VH: EVRLVESGGGLVQPGGSLKLSCATSGFTFSDYFMYWIRQTPEKRLEWVAYISNGGDSSSYPDTVKGRFTISRDNAKNTLYLQMSRLKSEDTAMYYCATNKNWDDYYDMDYWGQGTSVTVSS
VL: DIVVSQSPSSLAVSAGEKVTMSCKSSQSLLNSRTRKNYLAWYQQKPGQSPKLLIYWASTRESGVPDRFTGSGSGTDFTLTISSVQAEDLAVYYCKQSYNLLTFGAGTKLELKR
notes: Mouse VH/VL, human IgG4 / kappa; also called antiTLT-1 0023mab
The molecule B1 registered a Kd in the assay with hTLT-1 ECD-His of 4.36 nM. This molecule gave a koff with hTLT-1 ECD-His of 0.00125 s⁻¹. The molecule also came in with a kon with hTLT-1 ECD-His of 287000 M⁻¹ s⁻¹. For the same molecule, the “binding relative to wt hTLT-1 ECD-HPC4” value with hTLT-1 ECD-HPC4 K46A was < 0.2 fraction of wt; with hTLT-1 ECD-HPC4 R110A, < 0.2 fraction of wt; with hTLT-1 ECD-HPC4 L42A, < 0.2 fraction of wt; in the assay with hTLT-1 ECD-HPC4 Q43A, < 0.2 fraction of wt; with hTLT-1 ECD-HPC4 M91A, < 0.4 fraction of wt.

B2: Fab0100 (Fab, V domains shown)
VH: EVKLLESGGGLVQPGGSLKLSCAASGFDFSRYWMTWVRQAPGKGLEWIGEINPDSSTINYNPSLKDKFIISRDNAKNTLYLQMSEVRSEDTALYYCASGVFTSWGQGTLVTVSA
VL: DVVMTQTPLSLPVSLGDQASISCRSSQSLVHRNGNTYFHWALQKPGQSPKLLIYKVSNRFSGVPDRFSGSGSGTDFTLKISRVEAEDLGVYFCSQSTHVPYTFGGGTKLEIKR
notes: also called anti-TLT-1 Fab; identical to Fab0061
For B2, in the assay with hTLT-1.126-162, the binding result was “binds”.

B3: mAb0062 (antibody, V domains shown)
VH: QVQLQQSGAEPMKPGASVKISCKATGYTFSSHWIEWIKQRPGHGLEWIGEILPGSGNTNYNEKFKGKATFTADTSSNTAYMQLSSLTSEDSAVYYCARGYYGLNYDWYFDVWGAGTTVTVSS
VL: DIQMTQTTSSLSASLGDRVTISCRASQDISNYLNWYQQKPDGTVKLLIFYTSRLHSGVPSRFSGSGSGTDYSLTISNLEPEDIATYYCQQDTKLPYTFGGGTKLEMKR
notes: Mouse VH/VL, human IgG4 / kappa; variant of mAb0052 (HC C91Y, Kabat); The entries seem to include signal peptides; also called antiTLT-1 0062mab; (0052HC.C91Y)2
For the molecule B3, the Kd with hTLT-1 ECD-His came out at 4.12 nM. Besides, the off-rate (koff) in the assay with hTLT-1 ECD-His came out at 0.00134 s⁻¹. For the same molecule, in the assay with hTLT-1 ECD-His, the kon is 326000 M⁻¹ s⁻¹. Besides, the “binding relative to wt hTLT-1 ECD-HPC4” value with hTLT-1 ECD-HPC4 F54A is < 0.6 fraction of wt; in the assay with hTLT-1 ECD-HPC4 H116A it was < 0.6 fraction of wt; in the assay with hTLT-1 ECD-HPC4 R110A, < 0.2 fraction of wt; with hTLT-1 ECD-HPC4 L42A it was < 0.6 fraction of wt; in the assay with hTLT-1 ECD-HPC4 Q43A, < 0.4 fraction of wt; in the assay with hTLT-1 ECD-HPC4 M91A it was < 0.4 fraction of wt. In addition, the “binding relative to wt hTLT-1 ECD-HPC4” value with hTLT-1 ECD-HPC4 R41A was < 0.2 fraction of wt.

Source of the values: patent publication US20190083587A1 (Novo Nordisk, published 2019).
